± gives the standard error. Fewer inactive variants are shown than the library holds.
B1: glmS ribozyme (parent)
chain: AUAAAAGCGCCAGAACUACAGAAAUGUAGUUGACGAGGAGGAGGUUUAUCGAAUUUUCGGCGGAUGCCUCCAAA

Variants of: B1
Assay: self-cleavage kobs at 2500 uM GlcN6P; higher = faster cleavage; RNA array
Details: with glucosamine-6-phosphate
Outline: (§1)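 kcat and KM were obtained from weighted Michaelis–Menten fits across concentrations of kobs values. Those came from one- or two-exponential decay fits to per-tile medians normalised to baseline and to non-cleaving reference variants. The variants were barcoded ribozymes transcribed in situ by E. coli RNA polymerase on sequenced MiSeq chips and tracked through a hybridised Cy3 probe at 37 °C, with 40 μM to 10 mM glucosamine-6-phosphate in HEPES/KCl/Mg(OAc)2 buffer flowed in.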

Variant | self-cleavage kobs at 2500 uM GlcN6P [s⁻¹]
AUAAAAGCGCCAGAACUACAGAAAUGUAGUUGACGAGGAGGAGGUUUACCGAAUCUUCGGCGGAUGCCUGCAAA [U49C U55C C70G] | < 1e-05
AUAAAAGCGCCAUAACUACAGAAAUGUAGUUGACGGGGAGGAGGUUUAUCGAAUUUUCGAUGGAUGCCUCCAAA [G13U A36G G60A C61U] | < 1e-05
AUAAAAGCGCCAGAACUACAGAAAUGUAGUUGACGAGGAGGAGUGUUAUCGAAUUUUCGGCGGAUGCCUUCAAA [G44U U45G C70U] | 0.000791 ± 0.00023
AUAAAAGCGCCAGUACUACAGAAAUGUAGUUGUCGAGGAGGAGGUUUAUCGACUUUUCGGCGUAUGCCUCCAAA [A14U A33U A53C G63U] | < 1e-05
AUAAAAGCGCCACAACUACAGAAAUGUAGUUGCCGAGGAGGAGGUUCAUCGAAUUUUCGGCGGUUGCCUACAAA [G13C A33C U47C A64U C70A] | < 1e-05
AUAAAAGCGCCAGAAUUACAGAAAUGUAGUUGACGAGGAGGAGGUUUAUCGGGUUUUCGGUGGAUGCCUCCAAA [C16U A52G A53G C61U] | < 1e-05
AUAAAAGCGCCAGAACUACAGAAAUGUAUUUGCCGAGGAGGAGCUUUAUCGAAUUUUCGGCGGAUGCCUCCAAA [G29U A33C G44C] | 0.000325 ± 0.00014
AUAAAAGCGCCAGAACUACAGAAAUGUAGUUGACCAGGAGGUGGUUUAUCGAAUAUUGGGCGGAUGCCUCCAAA [G35C A42U U55A C58G] | < 1e-05
AUAAAUGCGCCAGAACUACAGAAAUGUAGUGGACGUGGAGGAGGUUUAUCGAAUUUUCGGCGGAUGCCUCCAAA [A6U U31G A36U] | < 1e-05
AUAAAAGCGCCAGAACUACAGAAAUGUAGUUGAUGAGGAGGAGGUUUAUCGAAUUUUUGGCGGAAGCCUCCAAA [C34U C58U U65A] | < 1e-05
AUAAACGCGCCAGAACUACAGAAAUGUAGUUGACGUCGUGGAGGUUUAUCGAAUUUUCGGCGGAUGCCUCCAAA [A6C A36U G37C A39U] | < 1e-05
AUAAAAGCGGCAGAACUACAGAAAUGUAGUUGACAAGGAGGAGGUUUAUCGAAUUUUCGGCGGAUACCUCCAAA [C10G G35A G66A] | < 1e-05
AUAAAAGCGCCAGAACUACAGAAAUGUAGUUGACGACUAGGAGGUUUAUCAAAGUUUCGGCGGAUGCCUCCAAA [G37C G38U G51A U54G] | < 1e-05
AUAAAAGCGCCGGAACUACAGAAAUGUAGUUGACGAGGAGGAGGUUUAUCGAAAUUUCGGCGGAUGCGUCCAAA [A12G U54A C68G] | 5.86e-05 ± 1e-05
AUAAAAGCGCCGGAACUACAUAAAUGUAGUUGACGAGGAGGAGGUUGAUCGAAUUUUCGGCGGAAGCCUCCAAA [A12G G21U U47G U65A] | 6.16e-05 ± 1.7e-05
AUAAAAGCGCCAGAUUUACAGAAAUGUAGUUGACGAGGAGGAGGUUUAACGAAUUUUCGGCGGAUGCCUGCAAA [A15U C16U U49A C70G] | 4.48e-05 ± 1.7e-05
AUAAAAGCGCCAGAACUACAGAAAUGUAGUUGAUGAGGAGGAGGUUUAUAGAAUUUUCGGCGGAUGCCCCCAAA [C34U C50A U69C] | 0.000135 ± 6.7e-05
AUAAAAGCCCAAGAACUACAGAAAUGUAGUUGACGAGGAGGAGUUUUAUCGAAUUUUCGGCGAAUGUCUCCAAA [G9C C11A G44U G63A C67U] | < 1e-05

Variant | self-cleavage kobs at 2500 uM GlcN6P [s⁻¹]
AUAAAAGCGCCAUAACUACAGAAAUGUAGUUGACGAGGAGGAGGUUGAUCGAAAUUUCGGCAGAUGCCUCCAAA [G13U U47G U54A G62A] | < 1e-05
AUAAAAGCGCCAGAACUACAGAAAUGUAUUUGACAAGGAGGUGGUUUAUCGAAUUUUCGGCGGAUGCCUCCAAA [G29U G35A A42U] | < 1e-05
AUAAAAGUUCCAGAUCUACAGAAAUGUAGUUGACGAGGAGGAGUUUUAUCGAAUUUUCGGCGGAUGCCUCCAAA [C8U G9U A15U G44U] | < 1e-05
AUAAAAGCGUUAGAACUACAGAAAUGUAGUUGACGCGGAGGUGGUUUCUCGAAUUUUCGGCGGAUGCCUCCAAA [C10U C11U A36C A42U A48C] | < 1e-05
AUAAAAGAGCCAGAACUACAGAAAUGUAGUUGACGAAGAGUAGGUUUUUGGAAUAUUCGGCGGAUGCCUCCAAA [C8A G37A G41U A48U C50G U55A] | < 1e-05
AUAAAAGCGCCCGAACUACAGAAAUGUAGUUGACGAGCAGGAGGUUUAUCGAAUUUUCGGCGGAUGCCUCUAAA [A12C G38C C71U] | < 1e-05
AUAAAAGGGCCAGUACUACAGAAAUGUAGUUGACGAGGGGGAGGUUUAUCGAAUUUUCGGCGGAUGCCUCCAAA [C8G A14U A39G] | < 1e-05
AUAAAAGCGCAAGAACUACAGAAAUGUAGUUGACGAGGAGGAGGUUUAUUGAAUUUUCGGUGGAUGGCUCCAAA [C11A C50U C61U C67G] | 0.000136 ± 5.6e-05
AUAAAAGCGCCAGCACUACAGAAAUGUAGUUGACGAGGCGGAGGUUUAUCGAAUUUUCGGCGGAGGCCUCCAAA [A14C A39C U65G] | < 1e-05
AUAAAGGCGCCGGAACUACAGAAAUGUAGUUGUCGCGGAGGAGGUUUAUCGAAUUUUCGGCGGAUGCCUCCAAA [A6G A12G A33U A36C] | < 1e-05
AUAAAAGCGCCAGAACUACAGAAAUGUAGUCGACAAGGAGGAGGUUUAUCGAAUUUUCGGCGGAUGCCUCUAAA [U31C G35A C71U] | < 1e-05
AUAAAAGCGCCAGAACUACAGAAAUGUAGUUGCCGAGGAAGAGGUUUAUCGUAUUUUCGGGGGAUGCCUCCAAA [A33C G40A A52U C61G] | < 1e-05
AUAAAAGCGCCAGGACUACAGAAAUGUAGUUGACGAGGUGGAGGUUUAUCGAAUUUUCGGCGGAUGCCUCGAAA [A14G A39U C71G] | 0.00129 ± 0.00041
AUAAAAGCGCCAGAGCUACAGAAAUGUAGUUGACGAGGAGGAGUUUUAUCGAAUUUUCGGCGGUGGCCUCCAAA [A15G G44U A64U U65G] | < 1e-05
AUAAAAGCGUCAUAACUACAGAAAUGUAGUUGACGAGGAGGAGGUUUAUCGUAUUUUCGGCGGAUGCCUCCAAA [C10U G13U A52U] | < 1e-05
AUAAAAGCGGCAGUACUACAGAAAUGUAGUUGACUAGGAGGAGGUUUAUCGAAUUUUCGCCGGAUGCCUCCAAA [C10G A14U G35U G60C] | < 1e-05
AUAAAAGCGUUAGACCUACAGAAAUGUAGUUGAAGAGGAGGAGGUUUAUCGAAUUUUCGGCGGAUGCCUCCAAA [C10U C11U A15C C34A] | < 1e-05

Variants of: B1
Assay: self-cleavage kobs at 10000 uM GlcN6P; higher = faster cleavage; RNA array
Details: with glucosamine-6-phosphate
Outline: as §1

Variant | self-cleavage kobs at 10000 uM GlcN6P [s⁻¹]
AUAAAUGCGCCAGAACUACAGAAAUGUAGUGGACGUGGAGGAGGUUUAUCGAAUUUUCGGCGGAUGCCUCCAAA [A6U U31G A36U] | < 1e-05
AUAAAAGGGCCAGUACUACAGAAAUGUAGUUGACGAGGGGGAGGUUUAUCGAAUUUUCGGCGGAUGCCUCCAAA [C8G A14U A39G] | < 1e-05
